Laboratory results: patent publication US20220000983A1 (UNITED STATES GOVERNMENT AS REPRESENTED BY THE DEPARTMENT …, published 2022)
Starred links: 1 amine or outer side, 2 acyl side, 3 side chain; linkers in the order of their positions; H or OH if unused. Non-standard residues stand in square brackets, D forms with d. No end group written: not given here. *: point of attachment. Tyr(Me) = O-methyltyrosine, COc1ccc(C[C@H](N[*:1])C(=O)[*:2])cc1; Phenylacetyl(2,3,4,5,6-F5) = O=C(Cc1c(F)c(F)c(F)c(F)c1F)*; Phe(F5) = N[C@@H](Cc1c(F)c(F)c(F)c(F)c1F)C(=O)O; Phe(4-Cl) = N[C@@H](Cc1ccc(Cl)cc1)C(=O)O; hArg = N=C(N)NCCCC[C@H](N)C(=O)O; Nle = CCCC[C@H](N)C(=O)O; Orn = NCCC[C@H](N)C(=O)O; Abu = CC[C@H](N)C(=O)O; Ada = not defined here; Amp = not defined here; Cpa = not defined here; PhAc = O=C(Cc1ccccc1)*; Aoc = NCCCCCCCC(=O)O

T1: GHRH receptor on rat pituitary cells (rat, UniProt Q02644 23-464)
T1 sequence (looked up): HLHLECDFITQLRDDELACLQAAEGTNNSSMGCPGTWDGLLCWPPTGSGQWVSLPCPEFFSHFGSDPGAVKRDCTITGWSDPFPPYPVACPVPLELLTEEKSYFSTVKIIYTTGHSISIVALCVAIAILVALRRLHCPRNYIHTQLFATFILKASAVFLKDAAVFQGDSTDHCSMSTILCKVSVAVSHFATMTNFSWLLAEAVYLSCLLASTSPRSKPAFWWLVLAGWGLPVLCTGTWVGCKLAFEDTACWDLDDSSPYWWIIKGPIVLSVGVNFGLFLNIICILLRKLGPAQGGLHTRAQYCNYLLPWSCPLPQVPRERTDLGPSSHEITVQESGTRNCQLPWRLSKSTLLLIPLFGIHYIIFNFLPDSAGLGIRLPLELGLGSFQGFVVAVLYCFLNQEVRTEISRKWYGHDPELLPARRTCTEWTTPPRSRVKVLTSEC

T2: GHRH receptor (membrane GHRH-receptors on human anterior pituitary cells) (human, UniProt Q02643 23-423)
T2 construct: whole, on cells; Native receptor in membrane fractions prepared from bought human pituitary (National Hormone and Peptide Program), not a recombinant construct; also called pituitary type GHRH-receptor; pGHRH-R
T2 sequence (looked up): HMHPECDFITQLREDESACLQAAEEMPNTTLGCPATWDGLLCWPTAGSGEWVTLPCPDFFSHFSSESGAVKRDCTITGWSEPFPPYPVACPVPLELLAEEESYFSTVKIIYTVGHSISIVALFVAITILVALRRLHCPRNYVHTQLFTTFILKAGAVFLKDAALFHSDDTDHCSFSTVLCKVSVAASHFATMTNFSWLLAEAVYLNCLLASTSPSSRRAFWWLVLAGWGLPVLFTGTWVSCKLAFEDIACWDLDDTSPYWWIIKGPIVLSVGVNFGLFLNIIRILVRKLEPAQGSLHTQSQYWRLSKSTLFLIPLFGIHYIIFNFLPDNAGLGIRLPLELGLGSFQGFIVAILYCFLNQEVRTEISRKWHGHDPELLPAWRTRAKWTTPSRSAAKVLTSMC


What was measured:
[1] = target: T1, GHRH receptor on rat pituitary cells; test: cell-based or functional assay
[2] = target: GHRH receptor (membrane GHRH-receptors on human anterior pituitary cells) (human) (UniProt Q02643); test: competitive radioligand binding; displacement of 125I-[His1,Nle27]-hGH-RH(1-32)NH2 (0.2 nM) from human pituitary membrane fractions
[3] = target: T2, GHRH receptor (membrane GHRH-receptors …); test: as above
Method: Receptor binding affinities in vitro. Preparation of human pituitary membrane fractions and receptor binding of analogs of GH-RH were performed (Halmos G, Rekasi Z, Szoke B, Schally A V. (1993) Receptor 3:87-97). Human pituitary was purchased from the National Hormone and Peptide Program. […] The values were calculated from technical duplicate tubes.
Nineteen new AVR analogs of GHRH were tested in the receptor binding assay. Table 6 presents the IC₅₀ values of GHRH antagonists to membrane GHRH-receptors binding on human anterior pituitary cells.

Molecule	IC50 [3]	Relative GH release [1]	also measured
MIA-602 (peptide)			Relative GH release (relative to control (1.00)) [1]: 0.78; IC50 [2]: 0.27 nM
AVR-540 (peptide)			Relative GH release (relative to control (1.00)) [1]: 0.88
AVR-332 (peptide)			IC50 [2]: 0.34 nM
{PhAc-Ada}-Y[dR]DAI[Phe(4-Cl)]TN[hArg][Tyr(Me)]RKVL[Abu]QLSARKLLQDI[Nle][dR][hArg]-{Aoc-NHMe} (reading uncertain, Synthetic GHRH antagonist) [AVR-321]	0.23 nM		
{PhAc-Ada}-Y[dR]DAI[Cpa]TARYRKVL[Abu]QLSARKLLQDI[Nle][dR][hArg]-NH2 (reading uncertain, Synthetic GHRH antagonist) [AVR-107]	0.61 nM		
{Phenylacetyl(2,3,4,5,6-F5)-Ada}-Y[dR]DAI[Phe(4-Cl)]TN[hArg][Tyr(Me)]RKVL[Abu]QLSARKLLQDI[Nle][dR][hArg]-{Ada-NH2} (reading uncertain, Synthetic GHRH antagonist) [AVR-333]	0.3 nM	0.88 relative to control (1.00)	
{PhAc-Ada}-Y[dR]DAI[Phe(4-Cl)]TNR[Tyr(Me)]RKVL[Abu]QLSARKLLQDI[Nle][dR][hArg]-NHMe (reading uncertain, Synthetic GHRH antagonist) [AVR-234]	0.45 nM		
{PhAc-Ada}-Y[dR]DAI[Phe(4-Cl)]TAR[Phe(F5)]RKVL[Abu]QLSAH[Orn]LLQDI[Nle][dR][hArg]-NH2 (reading uncertain, Synthetic GHRH antagonist) [AVR-116]	0.5 nM		
{PhAc-Ada}-Y[dR]DAI[Cpa]TAR[Amp]RKVL[Abu]QLSAH[Orn]LLQDI[Nle][dR][hArg]-NHMe (reading uncertain, Synthetic GHRH antagonist) [AVR-201]	0.61 nM		
{PhAc-Ada}-Y[dR]DAI[Phe(4-Cl)]TAR[Tyr(Me)]RKVL[Abu]QLSAH[Orn]LLQDI[Nle][dR][hArg]-NH2 (reading uncertain, Synthetic GHRH antagonist) [AVR-104]	0.59 nM		
{Phenylacetyl(2,3,4,5,6-F5)-Ada}-Y[dR]DAI[Phe(F5)]TA[hArg][Tyr(Me)]RKVL[Abu]QLSARKLLQDI[Nle][dR]-NHMe (reading uncertain) [AVR-235]	0.49 nM	0.6 relative to control (1.00)	
{PhAc-Ada}-Y[dR]DAI[Cpa]TA[hArg][Phe(F5)]H[Orn]VL[Abu]QLSAH[Orn]LLQDI[Nle][dR][hArg]-NH2 (reading uncertain) [MIA-690]	0.53 nM		
{dF-Ada}-Y[dR]DAI[Phe(4-Cl)]TAR[Tyr(Me)]RKVL[Abu]QLSAH[Orn]LLQDI[Nle][dR][hArg]-NH2 (reading uncertain, Synthetic GHRH antagonist) [AVR-120]	0.48 nM		
{Phenylacetyl(2,3,4,5,6-F5)-Ada}-Y[dR]DAI[Cpa]TNR[Tyr(Me)]RKVL[Abu]QLSAH[Orn]LLQDI[Nle][dR][hArg]-{Ada-NH2} (reading uncertain, Synthetic GHRH antagonist) [AVR-620]	0.31 nM		

Continued, in another order:

IC50 [3]	Relative GH release [1]	Molecule	also measured
0.09 nM	0.72 relative to control (1.00)	{Phenylacetyl(2,3,4,5,6-F5)-Ada}-Y[dR]DAI[Phe(F5)]TA[hArg][Tyr(Me)]RKVL[Abu]QLSARKLLQDI[Nle][dR][hArg]-{Ada-NH2} (not fully specified; reading uncertain) [AVR-352]	
0.17 nM		{Phenylacetyl(2,3,4,5,6-F5)-Ada}-Y[dR]DAI[Cpa]TA[hArg][Phe(F5)]H[Orn]VL[Abu]QLSAH[Orn]LLQDI[Nle][dR][hArg]-{Ada-NH2} (reading uncertain, Synthetic GHRH antagonist) [AVR-552]	
0.21 nM		{Phenylacetyl(2,3,4,5,6-F5)-Ada}-Y[dR]DAI[Cpa]TA[hArg][Phe(F5)]H[Orn]VL[Abu]QLSAH[Orn]LLQDI[Nle][dR][hArg]-NHMe (reading uncertain) [AVR-542]	
0.25 nM	1.1 relative to control (1.00)	{Phenylacetyl(2,3,4,5,6-F5)-Ada}-Y[dR]DAI[Cpa]TA[hArg][Phe(F5)]H[Orn]VL[Abu]QLSAH[Orn]LLQDI[Nle][dR][hArg]-{Ada-NHMe} (reading uncertain, Synthetic GHRH antagonist) [AVR-543]	
0.15 nM	0.82 relative to control (1.00)	{Phenylacetyl(2,3,4,5,6-F5)-Ada}-Y[dR]DAI[Phe(F5)]TA[hArg][Tyr(Me)]H[Orn]VL[Abu]QLSAH[Orn]LLQDI[Nle][dR][hArg]-{Ada-NH2} (reading uncertain, Synthetic GHRH antagonist) [AVR-553]	
0.25 nM		{Phenylacetyl(2,3,4,5,6-F5)-Ada}-Y[dR]DAI[Phe(4-Cl)]TN[hArg][Tyr(Me)]RKVL[Abu]QLSARKLLQDI[Nle][dR][hArg]-{Aoc-NHMe} (reading uncertain, Synthetic GHRH antagonist) [AVR-322]	
0.11 nM	0.65 relative to control (1.00)	{Phenylacetyl(2,3,4,5,6-F5)-Ada}-Y[dR]DAI[Phe(4-Cl)]TA[hArg][Phe(F5)]RKVL[Abu]QLSARKLLQDI[Nle][dR][hArg]-{Ada-NH2} (reading uncertain, Synthetic GHRH antagonist) [AVR-353]	
0.14 nM	0.9 relative to control (1.00)	{Phenylacetyl(2,3,4,5,6-F5)-Ada}-Y[dR]DAI[Phe(4-Cl)]TA[hArg][Phe(F5)]RKVL[Abu]QLSARKLLQDI[Nle][dR][hArg] (not fully specified (C-terminus); reading uncertain) [AVR-354]	
